Patent US20250011397A1 (HOSPITAL FOR SICK CHILDREN, published 2025)
Substitutions are numbered along the chain they refer to. Several values for one entry are separate records, joined by “and”; a condition that tells them apart may be missing. Equal values may be shown once.

B1: MB 192 (other)
heavy: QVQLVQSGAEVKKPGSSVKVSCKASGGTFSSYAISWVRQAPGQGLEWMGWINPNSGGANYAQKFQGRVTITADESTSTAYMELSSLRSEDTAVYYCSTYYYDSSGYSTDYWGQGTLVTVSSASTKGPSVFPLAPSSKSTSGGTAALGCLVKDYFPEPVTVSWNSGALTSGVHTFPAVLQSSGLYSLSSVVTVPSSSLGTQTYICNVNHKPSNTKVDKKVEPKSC
light: DIVMTQSPLSLPVTPGEPASISCRSSQSLLHSNGYNYLDWYLQKPGQSPQLLIYAASSLQSGVPDRFSGSGSGTDFTLKISRVEAEDVGVYYCMQALQTPYTFGQGTKLEIKRTVAAPSVFIFPPSDEQLKSGTASVVCLLNNFYPREAKVQWKVDNALQSGNSQESVTEQDSKDSTYSLSSTLTLSKADYEKHKVYACEVTHQGLSSPVTKSFNRGEC
B2: MB 180 (other)
heavy: QVQLVQSGAEVKKPGSSVKVSCKASGYTFTSYAMHWVRQAPGQGLEWMGRISPRSGGTKYAQRFQGRVTITADESTSTAYMELSSLRSEDTAVYYCAREAVAGTHPQAGDFDLWGRGTLVTVSSASTKGPSVFPLAPSSKSTSGGTAALGCLVKDYFPEPVTVSWNSGALTSGVHTFPAVLQSSGLYSLSSVVTVPSSSLGTQTYICNVNHKPSNTKVDKKVEPKSC
light: B1 light with M94Q, A96Y, L97Y, Q98S, T99S
B3: MB 178 (other)
heavy: QVQLVQSGAEVKKPGASVKVSCKASGYTFTDYHMHWVRQAPGQGLEWMGWINPNSGGTNYAQKFQGRVTMTRDTSTSTVYMELSSLRSEDTAVYYCARDISSWYEITKFDPWGQGTLVTVSSASTKGPSVFPLAPSSKSTSGGTAALGCLVKDYFPEPVTVSWNSGALTSGVHTFPAVLQSSGLYSLSSVVTVPSSSLGTQTYICNVNHKPSNTKVDKKVEPKSC
light: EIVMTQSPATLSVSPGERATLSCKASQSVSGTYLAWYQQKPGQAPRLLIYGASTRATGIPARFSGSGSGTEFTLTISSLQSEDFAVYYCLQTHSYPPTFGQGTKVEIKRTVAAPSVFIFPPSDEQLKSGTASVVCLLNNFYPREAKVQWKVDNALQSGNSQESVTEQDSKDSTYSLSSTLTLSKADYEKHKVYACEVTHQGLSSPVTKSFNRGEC
B4: MB 108 (other)
heavy: QVQLVQSGAEVKKPGASVKVSCKASGYIFSRYAIHWVRQAPGQGLEWMGWMNPISGNTDYAPNFQGRVTMTRDTSTSTVYMELSSLRSEDTAVYYCAKDGSQLAYLVEYFQHWGQGTLVTVSSASTKGPSVFPLAPSSKSTSGGTAALGCLVKDYFPEPVTVSWNSGALTSGVHTFPAVLQSSGLYSLSSVVTVPSSSLGTQTYICNVNHKPSNTKVDKKVEPKSC
light: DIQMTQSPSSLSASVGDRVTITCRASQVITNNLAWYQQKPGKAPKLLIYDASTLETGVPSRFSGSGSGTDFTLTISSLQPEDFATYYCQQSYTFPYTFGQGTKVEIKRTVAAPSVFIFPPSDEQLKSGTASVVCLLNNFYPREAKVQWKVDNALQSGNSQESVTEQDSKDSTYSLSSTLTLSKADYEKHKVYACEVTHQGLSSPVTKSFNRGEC
B5: mAb 349 (antibody, V domains shown)
VH: EVQLLESGGGLVQPGGSLRLSCAASGFTFSNYGMHWVRQAPGKGLEWVSGISSAGSITNYADSVKGRFTISRDNSKNTLYLQMNSLRAEDTAVYYCAGNHAGTTVTSEYFQHWGQGTLVTVSS
VL: DIQMTQSPSSLSASVGDRVTITCRASQSISSWLAWYQQKPGKAPKLLIYDTSNLETGVPSRFSGSGSGTDFTLTISSLQPEDFATYYCQQSYTTPWTFGQGTRLEIKR
notes: also called IgG 349
B6: mAb 108 (antibody, V domains shown)
VH: QVQLVQSGAEVKKPGASVKVSCKASGYIFSRYAIHWVRQAPGQGLEWMGWMNPISGNTDYAPNFQGRVTMTRDTSTSTVYMELSSLRSEDTAVYYCAKDGSQLAYLVEYFQHWGQGTLVTVSS
VL: B5 VL with S28V, S30T, S31N, W32N, T51A, N53T, T94F, W96Y, R103K, L104V
B7: mAb 160 (antibody, V domains shown)
VH: QVQLVQSGAEVKKPGASVKVSCKASGYTFTGHDMHWVRQAPGQGLEWMGIINPSGGSTSYAQKFQGRVTMTRDTSTSTVYMELSSLRSEDTAVYYCARANSLRYYYGMDVWGQGTMVTVSS
VL: B5 VL with I29V, D50A, T51A, N53S, E55Q, T56S, S91G, W96Y, R103K
notes: also called IgG 160
B8: MB 120 (other)
heavy: QVQLVQSGAEVKKPGASVKVSCKASGYTFTSYDINWVRQAPGQGLEWMGMIDPSGGSTSYAQKFQGRVTMTRDTSTSTVYMELSSLRSEDTAVYYCAKDFGGGTRYDYWYFDLWGRGTLVTVSSASTKGPSVFPLAPSSKSTSGGTAALGCLVKDYFPEPVTVSWNSGALTSGVHTFPAVLQSSGLYSLSSVVTVPSSSLGTQTYICNVNHKPSNTKVDKKVEPKSC
light: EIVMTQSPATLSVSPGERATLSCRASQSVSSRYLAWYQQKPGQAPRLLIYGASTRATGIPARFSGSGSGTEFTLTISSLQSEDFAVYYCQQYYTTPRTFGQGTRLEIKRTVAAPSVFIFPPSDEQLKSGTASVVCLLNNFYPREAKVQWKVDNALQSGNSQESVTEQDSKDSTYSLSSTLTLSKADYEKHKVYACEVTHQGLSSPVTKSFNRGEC
B9: mAb 178 (antibody, V domains shown)
VH: QVQLVQSGAEVKKPGASVKVSCKASGYTFTDYHMHWVRQAPGQGLEWMGWINPNSGGTNYAQKFQGRVTMTRDTSTSTVYMELSSLRSEDTAVYYCARDISSWYEITKFDPWGQGTLVTVSS
VL: EIVMTQSPATLSVSPGERATLSCKASQSVSGTYLAWYQQKPGQAPRLLIYGASTRATGIPARFSGSGSGTEFTLTISSLQSEDFAVYYCLQTHSYPPTFGQGTKVEIKR
notes: also called IgG 178
B10: MB 349 (other)
heavy: EVQLLESGGGLVQPGGSLRLSCAASGFTFSNYGMHWVRQAPGKGLEWVSGISSAGSITNYADSVKGRFTISRDNSKNTLYLQMNSLRAEDTAVYYCAGNHAGTTVTSEYFQHWGQGTLVTVSSASTKGPSVFPLAPSSKSTSGGTAALGCLVKDYFPEPVTVSWNSGALTSGVHTFPAVLQSSGLYSLSSVVTVPSSSLGTQTYICNVNHKPSNTKVDKKVEPKSC
light: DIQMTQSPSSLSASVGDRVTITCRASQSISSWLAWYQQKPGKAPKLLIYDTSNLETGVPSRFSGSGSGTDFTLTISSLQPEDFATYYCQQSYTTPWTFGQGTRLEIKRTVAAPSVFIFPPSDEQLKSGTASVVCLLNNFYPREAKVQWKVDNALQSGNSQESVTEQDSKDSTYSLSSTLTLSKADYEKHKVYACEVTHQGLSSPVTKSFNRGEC
B11: MB 158 (other)
heavy: QVQLVQSGAEVKKPGASVKVSCKASGYTFTGYYMHWVRQAPGQGLEWMGWINPLNGGTNFAPKFQGRVTMTRDTSTSTVYMELSSLRSEDTAVYYCARDPGGSYSNDAFDIWGQGTLVTVSSASTKGPSVFPLAPSSKSTSGGTAALGCLVKDYFPEPVTVSWNSGALTSGVHTFPAVLQSSGLYSLSSVVTVPSSSLGTQTYICNVNHKPSNTKVDKKVEPKSC
light: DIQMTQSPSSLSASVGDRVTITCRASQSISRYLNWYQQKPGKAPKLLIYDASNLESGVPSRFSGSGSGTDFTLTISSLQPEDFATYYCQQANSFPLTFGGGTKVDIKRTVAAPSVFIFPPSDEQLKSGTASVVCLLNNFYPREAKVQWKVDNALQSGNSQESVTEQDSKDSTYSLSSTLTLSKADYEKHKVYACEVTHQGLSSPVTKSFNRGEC
B12: mAb 128 (antibody, V domains shown)
VH: QVQLVQSGAEVKKPGASVKVSCKASGYTFTHYYMHWVRQAPGQGLEWMGIINPSSSSASYSQKFQGRVTMTRDTSTSTVYMELSSLRSEDTAVYYCARDGRYGSGSYPFDYWGQGTLVTVSS
VL: DIQMTQSPSSLSASVGDRVTITCRASQNISRYLNWYQQKPGKAPKLLIYDASNLETGVPSRFSGSGSGTDFTLTISSLQPEDFATYYCQQANGFPPTFGQGTKLEIKR
B13: mAb 56 (antibody, V domains shown)
VH: QVQLVQSGAEVKKPGASVKVSCKASGYTFTSYGISWVRQAPGQGLEWMGWISAYNGNTNYAQKLQGRVTMTRDTSTSTVYMELSSLRSEDTAVYYCARDIGPIDYWGQGTLVTVSS
VL: B12 VL with N28G, R31S, N34A, E55Q, T56S, G93S, P96S, L104V
notes: also called IgG 56
B14: MB 128 (other)
heavy: QVQLVQSGAEVKKPGASVKVSCKASGYTFTHYYMHWVRQAPGQGLEWMGIINPSSSSASYSQKFQGRVTMTRDTSTSTVYMELSSLRSEDTAVYYCARDGRYGSGSYPFDYWGQGTLVTVSSASTKGPSVFPLAPSSKSTSGGTAALGCLVKDYFPEPVTVSWNSGALTSGVHTFPAVLQSSGLYSLSSVVTVPSSSLGTQTYICNVNHKPSNTKVDKKVEPKSC
light: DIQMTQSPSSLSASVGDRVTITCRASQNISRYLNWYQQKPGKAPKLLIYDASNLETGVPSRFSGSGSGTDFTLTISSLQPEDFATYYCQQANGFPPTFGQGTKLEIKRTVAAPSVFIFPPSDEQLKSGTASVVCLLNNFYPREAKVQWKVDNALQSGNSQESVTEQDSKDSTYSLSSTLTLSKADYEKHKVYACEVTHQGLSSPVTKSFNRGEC
B15: MB 160 (other)
heavy: QVQLVQSGAEVKKPGASVKVSCKASGYTFTGHDMHWVRQAPGQGLEWMGIINPSGGSTSYAQKFQGRVTMTRDTSTSTVYMELSSLRSEDTAVYYCARANSLRYYYGMDVWGQGTMVTVSSASTKGPSVFPLAPSSKSTSGGTAALGCLVKDYFPEPVTVSWNSGALTSGVHTFPAVLQSSGLYSLSSVVTVPSSSLGTQTYICNVNHKPSNTKVDKKVEPKSC
light: DIQMTQSPSSLSASVGDRVTITCRASQSVSSWLAWYQQKPGKAPKLLIYAASSLQSGVPSRFSGSGSGTDFTLTISSLQPEDFATYYCQQGYTTPYTFGQGTKLEIKRTVAAPSVFIFPPSDEQLKSGTASVVCLLNNFYPREAKVQWKVDNALQSGNSQESVTEQDSKDSTYSLSSTLTLSKADYEKHKVYACEVTHQGLSSPVTKSFNRGEC
B16: MB 56 (other)
heavy: QVQLVQSGAEVKKPGASVKVSCKASGYTFTSYGISWVRQAPGQGLEWMGWISAYNGNTNYAQKLQGRVTMTRDTSTSTVYMELSSLRSEDTAVYYCARDIGPIDYWGQGTLVTVSSASTKGPSVFPLAPSSKSTSGGTAALGCLVKDYFPEPVTVSWNSGALTSGVHTFPAVLQSSGLYSLSSVVTVPSSSLGTQTYICNVNHKPSNTKVDKKVEPKSC
light: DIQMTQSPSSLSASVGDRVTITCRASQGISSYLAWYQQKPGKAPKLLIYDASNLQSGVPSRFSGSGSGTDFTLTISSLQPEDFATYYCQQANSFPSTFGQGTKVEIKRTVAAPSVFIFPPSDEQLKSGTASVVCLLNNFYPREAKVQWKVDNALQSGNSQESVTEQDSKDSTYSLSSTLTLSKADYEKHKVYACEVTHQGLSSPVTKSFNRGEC
B17: MB 254 (other)
heavy: EVQLLESGGGLVQPGGSLRLSCAASGFTFSSSAMHWVRQAPGKGLEWVSAIGTGGDTYYADSVKGRFTISRDNSKNTLYLQMNSLRAEDTAVYYCAREGDGYNFYFDYWGQGTLVTVSSASTKGPSVFPLAPSSKSTSGGTAALGCLVKDYFPEPVTVSWNSGALTSGVHTFPAVLQSSGLYSLSSVVTVPSSSLGTQTYICNVNHKPSNTKVDKKVEPKSC
light: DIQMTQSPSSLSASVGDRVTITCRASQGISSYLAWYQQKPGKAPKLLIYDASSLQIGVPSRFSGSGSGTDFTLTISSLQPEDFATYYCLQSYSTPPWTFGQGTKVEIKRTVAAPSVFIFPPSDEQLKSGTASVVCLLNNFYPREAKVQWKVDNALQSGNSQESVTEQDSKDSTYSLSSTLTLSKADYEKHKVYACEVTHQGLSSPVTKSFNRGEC

Tests used:
[1] = biological target: T1, SARS-CoV-2 Spike on HIV-based pseudotyped virus (Spike plasmid BEI NR52310) (SARS-CoV-2, UniProt P0DTC2 14-1273); assay: cell-based or functional assay
[2] = biological target: T1, SARS-CoV-2 Spike on HIV-based …; assay: cell-based or functional assay; remark: listed apart in the source

Binder | IC50 SARS-CoV2 PsV (µg/mL), MB [1] | Median IC50 (PsV neutralization) [2] | IC50 SARS-CoV2 PsV (µg/mL), IgG [1]
B1 | 0.79 µg/mL | 0.79 µg/mL and 343 pM | 
B2 | 0.89 µg/mL | 0.89 µg/mL and 387 pM | 
B3 | 1.7 µg/mL | 1.7 µg/mL and 0.74 nM | 
B4 | 0.37 µg/mL | 0.37 µg/mL and 161 pM | 
B5 |  | > 50 µg/mL and > 333 nM | > 50 µg/mL
B6 |  | > 50 µg/mL and > 333 nM | > 50 µg/mL
B7 |  | > 50 µg/mL and > 333 nM | > 50 µg/mL
B8 | 7.2 µg/mL | 7.2 µg/mL and 3.1 nM | 
B9 |  | > 50 µg/mL and > 333 nM | > 50 µg/mL
B10 | > 50 µg/mL | > 50 µg/mL and > 0.33 µM | 
B11 | 0.1 µg/mL | 0.1 µg/mL and 43 pM | 
B12 |  | > 50 µg/mL and > 333 nM | > 50 µg/mL
B13 |  | > 50 µg/mL and > 333 nM | > 50 µg/mL
B14 | 3.5 µg/mL | 1.5 nM and 3.5 µg/mL | 
B15 | 0.22 µg/mL | 0.22 µg/mL and 96 pM | 
B16 | > 50 µg/mL | > 50 µg/mL and > 0.33 µM | 
B17 | 9.3 µg/mL | 9.3 µg/mL and 4 nM | 
